Source: patent US20250115655A1, “PHARMACEUTICALS AND DEVICES FOR THE COVALENT IMMOBILIZATION TO THE EXTRACELLULAR MATRIX BY TRANSGLUTAMINASE” (JULIUS-MAXIMILIANS-UNIVERSITÄT WÜRZBURG, priority 2017, published 2025)
“Also recorded” adds a separate entry of the source.

Tests used:
[1] = molecular target: T1, Factor XIIIa (Homo sapiens, UniProt P00488); test: FXIIIa-mediated coupling of IGF-I to linker containing the glutamine substrate sequence (SDS-PAGE, western blot, HPLC kinetics); assay type: biochemical
T1 construct: purchased Fibrogammin®
T1 sequence (P00488 39-732 limits assumed): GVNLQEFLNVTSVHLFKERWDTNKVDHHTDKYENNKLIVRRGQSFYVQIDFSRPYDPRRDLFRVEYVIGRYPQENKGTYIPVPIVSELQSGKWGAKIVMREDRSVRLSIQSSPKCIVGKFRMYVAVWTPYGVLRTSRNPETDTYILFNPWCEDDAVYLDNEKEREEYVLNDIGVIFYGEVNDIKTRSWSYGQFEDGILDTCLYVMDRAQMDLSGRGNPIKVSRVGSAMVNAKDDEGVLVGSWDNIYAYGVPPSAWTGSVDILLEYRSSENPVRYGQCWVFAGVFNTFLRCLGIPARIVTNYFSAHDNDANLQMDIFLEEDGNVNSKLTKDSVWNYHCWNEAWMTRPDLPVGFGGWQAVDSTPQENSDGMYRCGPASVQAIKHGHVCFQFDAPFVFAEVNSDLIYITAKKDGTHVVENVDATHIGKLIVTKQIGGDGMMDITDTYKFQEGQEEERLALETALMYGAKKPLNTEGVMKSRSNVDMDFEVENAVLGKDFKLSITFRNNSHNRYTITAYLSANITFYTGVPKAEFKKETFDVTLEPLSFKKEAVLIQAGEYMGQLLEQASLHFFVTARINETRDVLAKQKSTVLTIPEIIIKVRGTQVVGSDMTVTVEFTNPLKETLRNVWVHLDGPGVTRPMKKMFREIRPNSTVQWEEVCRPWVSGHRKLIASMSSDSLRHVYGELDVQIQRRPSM
Procedure: The specificity and efficiency of the reaction was analyzed and compared to the isolated D domain (SEQ ID NO: 1) using a linker containing the glutamine substrate sequence derived from α-2 plasmin inhibitor and analyzed by SDS-PAGE and by western blotting using a monoclonal anti-IGF-I antibody (FIG. 4A). The transamidation was carried out at 37° C. for 5 min in Tris buffer (20 mM Tris-HCL, 150 mM sodium chloride, pH 7.6) with 0.1 M calcium chloride in presence of factor XIIIa (Fibrogammin®, activated with 0.02 U/ml thrombin). The resulting conjugate was analyzed by MALDI-MS and the site-specific conjugation confirmed. […] FIGS. 4A-4B: (4A) SDS PAGE and immunoblotting of human IGF-I after incubation with the glutamine substrate peptide modelled from the N-terminus of alpha-2 plasmin inhibitor (SEQ ID NO: 11) attached to a protease cleavable linker (PCL) in absence and presence of FXIIIa. (4B) HPLC analysis of IGF-I coupling kinetics mediated by […].

[2] = system: C2C12 myoblasts; test: Bioactivity of ECM-immobilized IGF-I: C2C12 myoblast proliferation (WST-1); assay type: cell-based; conditions: mouse myoblast cells, 48 hours
Procedure: (§1) To test this strategy, native IGF-I was immobilized onto fibroblast derived, isolated extracellular matrix in presence of Factor XIIIa (FIGS. 6A-6B). […] The transamidation reaction was carried out at 37° C. for 10 min in Tris buffer at pH 7.6 and is suitable for performance under physiological conditions. […] Bioactivity of immobilized IGF-I was confirmed by promoting cell proliferation of mouse myoblast cells (FIGS. 7A-7B).
FIGS. 7A-7B: Bioactivity of ECM-immobilized IGF-I. (7A) Native IGF-I was coupled to ECM in presence/absence of factor XIIIa, followed by seeding of C2C12 myoblasts on this naturally derived matrix and cell proliferation was measured after 48 hours incubation using WST-1 (Data are shown as mean±STDEV, n=3; ** p<0.01). (7B) The cells were fixed, stained with actin (green) and DAPI (cell nuclei, blue) and ECM-immobilized IGF-I was visualized using a monoclonal IGF-I antibody (red).

[3] = system: fibronectin; test: Immobilization of native IGF-I on fibroblast derived isolated ECM and soluble fibronectin in presence of Factor XIIIa; assay type: biochemical; conditions: 37° C., 10 min, antibody staining (FIG. 6A)
Procedure: as §1
FIGS. 6A-6B: (6A) Confocal laser scanning microscopy images of IGF-I immobilized on isolated ECM. The immobilized IGF-I was visualized with a monoclonal IGF-I antibody (green) und co-localized with fibronectin (red). (6B) Western Blot of human IGF-I after incubation with fibronectin in presence (lane 1) and absence (lane 2) of factor XIIIa with unreacted IGF-I as control (lane 3).

[4] = doses of 0.12 mg/kg, subcutaneous injection; cited from earlier work

Substance | crosslinking of the complete protein, reaction kinetics by HPLC ([1]; 37° C., Tris buffer pH 7.6 (FIG. 4B)) | kinetics of the coupling reaction ([1]; human factor XIIIa) | bioactivity of immobilized IGF-I (cell proliferation) [2] | co-localization with fibronectin after conjugation to the ECM [3] | half-life [4]
IGF-I: Human IGF-I, peptide hormone of 7.6 kDa, 70 amino acids | exceptionally fast and efficient | < 2 min | confirmed; also recorded: preserved | confirmed the co-localization with fibronectin | 
Mecasermin: Recombinant human IGF-I |  |  |  |  | 5.8 h
